In patent publication US20140161803A1 (IFOM FONDAZIONE ISTITUO FIRC DI ONCOLOGIA MOLECOLARE, published 2014):
Changes are numbered by the printed parent chain. Like-named read-outs stand apart in the source and are kept apart here. Values belong to the binder of their own block, whether it stands above or below them.

Tests used:
wild-type human uPAR = wild-type human uPAR (human, UniProt Q03405 23-305, GPI-anchor on Gly283); assay: cell-based or functional assay
pro-uPA [1] = target: T1, pro-uPA (UniProt P00749 21-431, limits assumed, Eu3+-label in the cell binding competition assay); assay: soluble receptor titrated on immobilized pro-uPA; detection 13F6 + Eu3+ anti-mouse, time-resolved fluorescence
T1 construct: also called immobilized uPA
Procedure: The bound material was detected by measuring time-resolved fluorescence intensity. Specific binding was calculated by subtracting the non-specific binding measured in uncoated wells incubated with identical samples. […] The binding curve and dissociation constant (Kd) were calculated by non-linear regression (four-parameter fit) using the Prism 5.0 software suite.
ON. […] The Eu³⁺-label was detected by measuring time-resolved fluorescence intensity using an Envision Xcite plate reader (Perkin Elmer Corp.) employing the DELFIA label protocol. To calculate the specific binding, non-specific binding measured in uncoated wells, incubated with identical samples, was subtracted from the total binding measured in coated wells.

vitronectin = target: T2, vitronectin (UniProt P04004 20-478, limits assumed); assay: soluble receptor titrated on immobilized VN without pro-uPA; detection 13F6 + Eu3+ anti-mouse, time-resolved fluorescence
T2 construct: also called VN; immobilized VN
Procedure: The data are from a single experiment and presented as means±SD. The binding curve and Kd were calculated by non-linear regression. […] The data are from a single experiment and are represented as means±SD. The binding curve and Kd were calculated by non-linear regression.

pro-uPA [2] = target: T1, pro-uPA; assay: soluble receptor titrated on immobilized pro-uPA; detection 13F6 + Eu3+ anti-mouse, time-resolved fluorescence; remark: listed apart in the source
Procedure: The bound material was detected by measuring time-resolved fluorescence intensity. Specific binding was calculated by subtracting the non-specific binding measured in uncoated wells incubated with identical samples. The data shown are means±SD from a representative experiment. The binding curve, equilibrium dissociation constant (Kd, in nanomolar units) and maximum binding capacity (Bmax, in CPS units (counts per second)) were calculated by non-linear regression (four-parameter fit) using the Prism 5.0 software suite.

T2 sequence (P04004 20-478 limits assumed): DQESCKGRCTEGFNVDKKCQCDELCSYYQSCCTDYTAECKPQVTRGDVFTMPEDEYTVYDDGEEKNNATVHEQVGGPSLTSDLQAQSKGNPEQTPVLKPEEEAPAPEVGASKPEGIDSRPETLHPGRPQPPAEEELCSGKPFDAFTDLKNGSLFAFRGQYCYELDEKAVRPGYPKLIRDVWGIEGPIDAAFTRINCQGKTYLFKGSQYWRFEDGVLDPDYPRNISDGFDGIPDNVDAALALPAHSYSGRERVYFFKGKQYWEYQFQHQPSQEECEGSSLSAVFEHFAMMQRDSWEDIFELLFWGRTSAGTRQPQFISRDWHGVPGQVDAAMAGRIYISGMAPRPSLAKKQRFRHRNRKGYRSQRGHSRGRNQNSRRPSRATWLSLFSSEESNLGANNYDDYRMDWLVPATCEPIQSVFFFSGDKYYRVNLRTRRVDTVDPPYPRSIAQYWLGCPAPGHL

% max inhibition (pro-uPA pre-treat.) (wild-type human uPAR): < 20%
% max inhibition (veh. pre-treat.) (wild-type human uPAR): 37%
B2: BE18 (antibody, mouse IgG1, V domains shown)
VH: ELVKPGASVKIICKASGYIFTDYNMDWVKQSHGKSLEWIGEINPNNGDTIYNQNFKGKATLTVDKSSSTAHMALRSLTSEDTAVYYCTRKGGLRAWFVYWGQGTLVTVS
VL: MSASPGEKVTMTCRASSSVSSSYLHWYQQKSGASPKVWIYSTSNLASGVPARFSGSGSGTSYSLTISSVEAEDAATYYCQQYSGYPLTFGSGTKLEIQ

% max inhibition (pro-uPA pre-treat.) (wild-type human uPAR): 82%
% max inhibition (veh. pre-treat.) (wild-type human uPAR): 38%
B4: 13D11 (antibody, V domains shown)
VH: ELMKPGASVKLSCKATGYTFTDYWIEWVKQRPGHGLEWIGEILPGRDSTDYNENFKGKATFTADTSSNTAYMQLSSLTTEDSAIYYCARDYYGHISNWYFDVWGTGTTVTVS
VL: SLSASLGERVSLTCRASQDIGSSLNWLQQEPDGTIKRLIYATSSLDSGVPKRFSGSRSGSDYSLTISSLESVDFVVYYCLQYATSPYTFGGGTKLEIKR

% max inhibition (pro-uPA pre-treat.) (wild-type human uPAR): < 20%
% max inhibition (veh. pre-treat.) (wild-type human uPAR): < 20%
B5: AL6 (antibody, V domains shown)
VH: ELMKPGASVKLSCKATGYSFTGYWIEWVKQRPGHGLEWIGEILPGSDRTNYNEKFKGKATFTADTSSNTAYMQLSSLTTEDSAIYYCARDDYDRGLYIMDYWGQGTSVTVS
VL: B4 VL with S22T, K36R, D46P, S47P, V72E, V76N

Continued, binder first:

B1: 13F6 (antibody, mouse IgG1, V domains shown)
VH: ELVKPGASVELSCKASGYTFTSYWMNWVKQRPGRGLEWIGRIAPNSGGTQYSGKFKTKATLTVDKSSSTAYMQLSSLTSEDSAVYYCARGDYFGHFDYWGQGTTLTVS
VL: SLSASLGGKVTITCKASQDINNYIAWYQHKPGKGPRLLIHYTSILQPGIPSRFSGSGSGRDYSFSISNLEPEDIATYYCLQCDNLLTFGAGTKLELK
% max inhibition (pro-uPA pre-treat.) (wild-type human uPAR): < 20%
% max inhibition (veh. pre-treat.) (wild-type human uPAR): < 20%

B3: ^GFDuPARmyc (receptor)
chain: SNELHQVPSNCDCLNGGTCVSNKYFSNIHWCNCPKKFGGQHCEIDKSKGGAGAAGGLRCMQCKTNGDCRVEECALGQDLCRTTIVRLWEEGEELELVEKSCTHSEKTNRTLSYRTGLKITSLTEVVCGLDLCNQGNSGRAVTYSRSRYLECISCGSSDMSCERGRHQSLQCRSPEEQCLDVVTHWIQEGEEGRPKDDRHLRGCGYLPGCPGSNGFHNNDTFHFLKCCNTTKCNEGPILELENLPQNGRQCYSCKGNSTHGCSSEETFLIDCRGPMNQCLVATGTHEPKNQSYMVRGCATASMCQHAHLGDAFSMNHIDVSCCTKSGCNHPGGEQKLISEEDL
notes: used as concentrated CHO conditioned medium; also called soluble GFDuPAR
Kd (pro-uPA [1]): 28 nM
Kd (vitronectin): 0.62 nM

B6: 19.10 (antibody, V domains shown)
VH: ELVKPGASVKLSCKATGYTFTVYWMEWVRQRPGHGLEWIGEILPGSGRTNYNERFKGKATFTADTSSNTAYMQLSSLTTEDSAIYYCARDYSGDTSTGYFDVWGTGTTVTVS
VL: B4 VL with S23G, N25S, V72E, V76D
% max inhibition (pro-uPA pre-treat.) (wild-type human uPAR): 79%
% max inhibition (veh. pre-treat.) (wild-type human uPAR): 67%

B7: uPARmyc (receptor)
chain: LRCMQCKTNGDCRVEECALGQDLCRTTIVRLWEEGEELELVEKSCTHSEKTNRTLSYRTGLKITSLTEVVCGLDLCNQGNSGRAVTYSRSRYLECISCGSSDMSCERGRHQSLQCRSPEEQCLDVVTHWIQEGEEGRPKDDRHLRGCGYLPGCPGSNGFHNNDTFHFLKCCNTTKCNEGPILELENLPQNGRQCYSCKGNSTHGCSSEETFLIDCRGPMNQCLVATGTHEPKNQSYMVRGCATASMCQHAHLGDAFSMNHIDVSCCTKSGCNHPGGEQKLISEEDL
notes: monomeric control receptor; used as concentrated CHO conditioned medium without purification; also called soluble monomeric form of uPAR with a C-terminal myc-tag
Kd (pro-uPA [2]): 11 nM
Kd (pro-uPA [1]): 1.1 nM
